Results on two molecules are retold here after patent US20240252670A1 (TSINGHUA UNIVERSITY, published 2024).

The test deals with T1, PD-L1 on the surface of murine cells (MC38, B16, wild-type DC 2.4) (murine, UniProt Q9EP73 19-290).
T1 construct: whole, on cells; also called PD-L1 antigen; Cd274 gene product
Put plainly: FACS on MC38 cells, FITC-labeled goat anti-human secondary antibody. An excerpt: A. The histograms of different colors represent, from top to bottom, the fluorescence signals measured for the negative control (NC) group, the secondary antibody group, the anti-PD-L1 antibody group, the anti-PD-L1 THIOMAB group, and the ADC HE-S2 group, respectively. B. Mean fluorescence intensity (MFI) measured after treatment with different antibody-based drugs on MC38. NC group: the negative control only added with the isotype antibody, with no secondary antibody added for staining; secondary antibody group: the control group added with the isotype antibody and stained with fluorescent secondary antibody. Student's t test was used to compare significant differences between the groups, and p<0.0001 is represented by ****.
With PD-L1 positive MC38 as a platform, the inventors verified whether ADC HE-S2 and the gene-modified anti-PD-L1 THIOMAB retained the original antibody-antigen binding capacity by using a fluorescence activated cell sorting (FACS) technique. In the experiment, ADC HE-S2, anti-PD-L1 antibody (i.e., avelumab as described in Example 2) and anti-PD-L1 THIOMAB (i.e., mutant antibody prepared in Example 2) serving as primary antibodies were incubated with MC38 cells, such that the antibodies could be sufficiently contacted and bind to PD-L1 on the cell surfaces. After washing with PBS, the cells were treated with an FITC-labeled goat anti-human secondary antibody, and incubated in the dark for 30 min to allow the secondary antibody to bind fully to the primary antibodies. Simultaneously, two groups of negative controls were set, wherein one group was marked as a negative control (NC), only isotype control IgG was added to treat the cells, no staining was carried out, and the fluorescent background of the cells was represented; the other group was marked as a secondary antibody, and after addition of isotype control IgG, the secondary antibody was stained with FITC-labeled secondary antibody along with other experimental groups to characterize false positive fluorescence signals generated by non-specific binding of secondary antibodies to the cells. The stained MC38 cells were analyzed on a BD FACSAria™ III flow cytometer, and the strength of FITC fluorescence signals on MC38 cells treated with different antibody-based drugs was detected and compared, so as to characterize the affinity of ADC, THIOMAB and antibodies to PD-L1.

T1 sequence (Q9EP73 19-290): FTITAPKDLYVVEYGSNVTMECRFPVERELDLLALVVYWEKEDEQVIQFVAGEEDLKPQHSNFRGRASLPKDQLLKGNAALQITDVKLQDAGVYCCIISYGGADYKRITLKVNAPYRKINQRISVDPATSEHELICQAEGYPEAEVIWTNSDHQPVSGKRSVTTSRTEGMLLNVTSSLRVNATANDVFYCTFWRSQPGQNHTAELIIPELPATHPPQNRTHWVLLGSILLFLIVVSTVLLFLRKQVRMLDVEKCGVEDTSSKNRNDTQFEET

B1: anti-PD-L1 THIOMAB (avelumab with light chain V205C) (antibody, human IgG1, lambda)
heavy: not shown
light: QSALTQPASVSGSPGQSITISCTGTSSDVGGYNYVSWYQQHPGKAPKLMIYDVSNRPSGVSNRFSGSKSGNTASLTISGLQAEDEADYYCSSYTSSSTRVFGTGTKVTVLGQPKANPTVTLFPPSSEELQANKATLVCLISDFYPGAVTVAWKADGSPVKAGVETTKPSKQSNNKYAASSYLSLTPEQWKSHRSYSCQVTHEGSTCEKTVAPTECS
modifications: engineered cysteine (V205C; Cys 226 of SEQ ID NO: 9) generally capped with a free cysteine in the intact THIOMAB as expressed
notes: also called αPD-L1 THIOMAB LC-V205C
For the molecule B1, the MFI was 449 and the “shift rate of the FITC positive signal relative to the NC group” value was 36.6%.

B2: anti-PD-L1 antibody avelumab (antibody, human IgG1, lambda)
heavy: not shown
light: QSALTQPASVSGSPGQSITISCTGTSSDVGGYNYVSWYQQHPGKAPKLMIYDVSNRPSGVSNRFSGSKSGNTASLTISGLQAEDEADYYCSSYTSSSTRVFGTGTKVTVLGQPKANPTVTLFPPSSEELQANKATLVCLISDFYPGAVTVAWKADGSPVKAGVETTKPSKQSNNKYAASSYLSLTPEQWKSHRSYSCQVTHEGSTVEKTVAPTECS
notes: also called MSB0010718C; Bavencio
B2: the MFI is 445 and the “shift rate of the FITC positive signal relative to the NC group” value worked out at 35.7%.
